# Article PMC4618611, “IscR of Rhodobacter sphaeroides functions as repressor of genes for iron-sulfur metabolism and represents a new type of iron-sulfur-binding protein” (MicrobiologyOpen, 2015)
# Several values for one entry are separate records, joined by “and”; a condition that tells them apart may be missing. Equal entries are not always repeated.
# B1: IscR of Rhodobacter sphaeroides (His-tagged recombinant IscR) (natural protein, UniProt Q3J0R9 1-155, looked up)
# chain: MKLSTKGRYAMVALVDLALAQKSGNELVSLAEVSKRQDISLPYLEQLFVKLRRAGLVEAVRGPGGGYKLARPAESIRVSEIMEAVEETVNAMHTGAGASGGVSGSRAQSLTNRLWEGLSAHVYVFLHQTRLSDIIKNEMRPCPAVPALFRVVDED
# notes: IscR, Rhodobacter sphaeroides 2.4.1, locus RSP_0443 (KEGG), 155 amino acid residues; the coding region of iscR was amplified and cloned into pQE30; also called His-tagged IscR; RSP_0443; source: E. coli M15 (pQE30::iscR), overexpressed, purified (Ni-NTA)
# Molecular target: the molecule itself
# Test: SEC; gel filtration of the purified protein on a Superdex 200 16/60 column; aerobic conditions; data not shown
protein,measurement,value
B1,stoichiometry N,2 and 4
